The labels stand for the following.
B1: Guanyl-specific ribonuclease Sa, P05798 (parent)
chain: DVSGTVCLSALPPEATDTLNLIASDGPFPYSQDGVVFQNRESVLPTQSYGYYHEYTVITPGARTRGTRRIITGEATQEDYYTGDHYATFSLIDQTC

Variants of B1 are the subject of this data set. Particulars: Kitasatospora aureofaciens, 25 °C, Urea, CD, structure 1RGG, whole UniProt chain shown.

As to R40E, where the note is “pH 3, Glycine 30 mM”, the “ddG of mutation (higher = less stable)” value was -0.3 kcal/mol, the denaturant m value was found to be 1.52 kcal/mol/M, the “denaturant midpoint (higher = more stable)” value (from here on “denaturant midpoint”) is 1.9 M and the unfolding free energy stood at 2.9 kcal/mol.
D1K D17K E41K D25K E74K: where the note is “pH 3, Glycine 30 mM”, the “ddG of mutation (higher = less stable)” value is -0.9 kcal/mol, the denaturant m value worked out at 1.92 kcal/mol/M, the “denaturant midpoint” value amounted to 1.8 M and the unfolding free energy is 3.5 kcal/mol. Also, under “pH 7, MOPS 30 mM”, the “ddG of mutation (higher = less stable)” value worked out at 0.7 kcal/mol, the denaturant m value was determined as 1.07 kcal/mol/M, the “denaturant midpoint” value amounted to 5.3 M and the unfolding free energy amounted to 5.7 kcal/mol.
On to D1K D17K E41K D25K E74K D79K S31K, for which, under “pH 3, Glycine 30 mM”, the “ddG of mutation (higher = less stable)” value worked out at 0 kcal/mol, the denaturant m value was 2.37 kcal/mol/M, the “denaturant midpoint” value was found to be 1.1 M and the unfolding free energy came out at 2.6 kcal/mol. In addition, where the note is “pH 7, MOPS 30 mM”, the “ddG of mutation (higher = less stable)” value is -0.2 kcal/mol, the denaturant m value was 1.15 kcal/mol/M, the “denaturant midpoint” value is 5.7 M and the unfolding free energy amounted to 6.6 kcal/mol.
In the case of R40E R63E, where the note is “pH 3, Glycine 30 mM”, the “ddG of mutation (higher = less stable)” value was -1.1 kcal/mol, the denaturant m value came out at 1.66 kcal/mol/M, the “denaturant midpoint” value stood at 2.2 M and the unfolding free energy was 3.7 kcal/mol.
Take D1K D17K E41K D25K E74K D79K: under “pH 3, Glycine 30 mM”, the “ddG of mutation (higher = less stable)” value is -0.2 kcal/mol, the denaturant m value amounted to 2.25 kcal/mol/M, the “denaturant midpoint” value was 1.2 M and the unfolding free energy stood at 2.7 kcal/mol. Also, for the setting “pH 7, MOPS 30 mM”, the “ddG of mutation (higher = less stable)” value is -0.7 kcal/mol, the denaturant m value came out at 1.03 kcal/mol/M, the “denaturant midpoint” value was 6.9 M and the unfolding free energy turned out to be 7.1 kcal/mol.
Turning to R40E R63E R65A R68A R69A, under “pH 3, Glycine 30 mM”, the “ddG of mutation (higher = less stable)” value was -2.7 kcal/mol, the denaturant m value amounted to 1.17 kcal/mol/M, the “denaturant midpoint” value turned out to be 4.5 M and the unfolding free energy worked out at 5.3 kcal/mol. For the setting “pH 7, MOPS 30 mM”, the “ddG of mutation (higher = less stable)” value was determined as 2.5 kcal/mol, the denaturant m value was 0.85 kcal/mol/M, the “denaturant midpoint” value came to 4.6 M and the unfolding free energy turned out to be 3.9 kcal/mol.
In the case of D1K D17K E41K, where the note is “pH 3, Glycine 30 mM”, the “ddG of mutation (higher = less stable)” value was -0.7 kcal/mol, the denaturant m value is 1.95 kcal/mol/M, the “denaturant midpoint” value was found to be 1.7 M and the unfolding free energy amounted to 3.3 kcal/mol. Besides, for the setting “pH 7, MOPS 30 mM”, the “ddG of mutation (higher = less stable)” value was determined as 2.7 kcal/mol, the denaturant m value stood at 0.93 kcal/mol/M, the “denaturant midpoint” value worked out at 4 M and the unfolding free energy came to 3.7 kcal/mol.
